Measured values taken from the DeepSol protein solubility set.

Assay: soluble on expression in E. coli; label from the status in PepcDB or PDB records

Sequence | soluble on expression in E. coli
MAHHHHHHMVLLKILKKIKDNKRNLRILILGLDNAGKTTIIKRLLGEDIYSVSPTFGFNIETLEFGNNILNIWDIGGQKSIRHFWKNYYEDVDGIIFVVDSTDLFRLQLCSFELKQILKEERLYGSTLLILSNKVDIDKSLTINQIVEILKLNEMNMDRHWCINECSAFSGKGLLKSFMWLIDDITDRIDS | not soluble
MAHHHHHHMVLLWVDAEQYGVASSLGLSDDAKYPAFVIARGEDHFVHPSTEPVTAESIEKFIIEYSEKKLSPEIKSQPVPEIETVEGLTTVVGKTLDKYLSSGKDMLIEFFAPWCGHCKNLAPIYAKVAKEFESSDVIIAAMDATANQVDNSLFDVSGFPTIYFVPHGGKPIVYDGGRTFYEIYKFVHEHSSTLKDVPIPEEVKREEEKNGDYDDL | soluble
MAHHHHHHMVSASPPQRDRGSPPTRPLSEPQDVDAPAAGTVQALRQAVEAQEACVRLLRARQAAREALLRHTRRLLTADDSIEWPGSVEQLVRQVEASLHKLQQAHSEAAAPAATTADNVAPTSAPSRSPRNAAGDADPSADPLARIFHSGVEAQLAAVAEPPHTLPASTLASRSSTAKRRKEAGESGLTNAVSTTSPPPGGPFPPRSAAMTALLARSASRQEAGHAAMLAALSALELSLMSNSGATEVGRDVHNAEPAWLRQVDSDSANDDDAAPEEQQQEKEGNRGDIASSDYSDDFECGSSTSSGADD | not soluble
MAHHHHHHMVVSTGEFDHPPFQFRQRHTFNTTPLHDANRFGGRTAYLREIGPVNIKKQGRRFKKDPRTVQFNVDVWCAQQTLRKRWKQRDWEVIEIPFRLVPREQQRVIPELYTDIPQMTDPARNDFSNIRNKVYDREELQGVLFPAAGTMLYPPLQRVDKQAMTLDKYL | not soluble
MAHHHHHHMWTAPPSLRTVRPIFLPLNVVANSTSSLLLHPGQLDLKHVEGYMTSKKWLSKLKCCGDNPLTVDEMKALVLMFLKKISDTYVDDQAKWMNKMRSSQEEQGKALEEAMNEYEKNILFNHALKEQQLLHNNKKISEWNETIENAYEAQQEVLRQFEAKKREDKKKMALEKNNELIIAKDYIDKIKEAATDSRYANSKCFVYPASSAPCGACTSAGAIAPYRRFKEPRRKKQYSLCL | not soluble
MAHHHHHHMYLHLIKNSTAKTPQLYTAKDNSKTAMHLLTRRAANANYTVNRWYLKEKVDSSNRMRLEGLYECVLCASCTGSCPQYWWNREHFLGPAVLLQSYRWLVEPLDRDFDERVRMFETGNLVNMCHNIFNCSITCPKFLNPGLASKEIKRLSSPSTKRVGPAIEMEPVTSGKEAGKRSLLQRL | soluble
MAHHHHHHMYSQRLSRVSPYLSNGSLSPRRFYEMLRRYATENLRDNFVQMQYREALLRLSRRDYWHWMGLRYGTLLFFPYGPRPEQTDNIPDWRHDEKIVQKWCAGLTGVPFADAAMRELLTTGFVAHEGRQALAWLLTRGYGQDWRLGAEWLERCSLDYDPFLCYGNFAYFSELILDDFGEPVRSVHWLAHHHDQTGIYVKKWLPLLSKIPPVYIHRPHVLTPRMQAMHGVRLGKTYPYPLKLWDGAQYMLGSDELTTYFDDSSAWHRKTKSGAGGPGHAEALRHGKAIMKVREWNAAILPEEVAQRPWAHHLPASAFESSEDEVETLQMRQRNQNQPTRHGQLSL | not soluble
MAHHHHHHSLEYNLTTTDVVMENVTAFWEEGFSKLFEKAKENNNNRKISNCDTSLFFSNLLLGTPVLKDISFKIERGQLLAVAGSTGAGKTSLLMMIMGELEPSEGKIKHSGRISFCSQYSWIMPGTIKDNIIFGVSYDEYRYRSVIKACQLEEDISKFSEKDNIVLGEGGITLSGGQRARISLARAVYKDADLYLLDSPFGYLDVLTEKEIFESCVCKLMANKTRILVTSKMEHLKKADKILILHEGSVYFYGTFSELQNQRPDFSSKLMGCDTFDQFTAERRNSIITETLRRFSLEGDTSV | soluble
MAHHHHHHSLITTYKTITSSTQAEFKDKGSRFIAFAYPIRTLADVKKYLDPLKEEHHKARHWCYAYRLGVDGMQFRANDDGEPSGSAGRPILGQIDSVGITDVLVVVVRYFGGTLLGVPGLIHAYKEATAQALAVAEVVEKNIEKTVWLKCEYPFLNEAIRIAKQYQADILERDLQLDCRLTVSLSLVNYEACVAAWKNTRQIEVNTEKPFEEG | soluble
MAHHHHHHSLSFSCPLCHQPLSREKNSYICPQRHQFDMAKEGYVNLLPVQHKRSRDPGDSAEMMQARRAFLDAGHYQPLRDAIVAQLRERLDDKATAVLDIGCGEGYYTHAFADALPEITTFGLDVSKVAIKAAAKRYPQVTFCVASSHRLPFSDTSMDAIIRIYAPCKAEELARVVKPGGWVITATPGPRHLMELKGLIYNEVHLHAPHAEQLEGFTLQQSAELCYPMRLRGDEAVALLQMTPFAWRAKPEVWQTLAAKEVFDCQTDFNIHLWQRSYEG | soluble
MAHHHHHHVDDDDKPGPALYEENALKGKIDDPNSYVPDAVQEAYKNLDSTSTLTEENFGKPYISAKDLKEIMYDHLPGFGTAFHQLVQVICKIGKDNNLLDTIHAEFQASLADGDSPQCALIQITKRVPIFQDVPPPIIHIRSRGDIPRACQKSLRPAPPSPKIDRGWVCLFKMQDGKTLGLKI | soluble
MAHLQYRDGDWYLHASMRKVEAGEGTSESESKHRTVLGVDLGVNNLAVASTGRFWSAGEFNHWRREYEKRRALLQQCGSRHAHENIESVGQKEYGRFEIYLHTVANELIEEAIENDCSHIVFEDLTHIRENIPEATWQHVWAFRRLYEYVEYKAKENGVEAVQVDPRNTSKRCLTCGFTHDDNRNGESFKCQQCGYENHADYNASKNIGLQYLRRRQNADDGGAPVDVRLNRGTLNVSGEYAHPASTEALEHHHHHH | not soluble
MAIALVTGGSRGIGRATALLLAQEGYTVAVNYQQNLHAAQEVMNLITQAGGKAFVLQADISDENQVVAMFTAIDQHDEPLAALVNNAGILFTQCTVENLTAERINRVLSTNVTGYFLCCREAVKRMALKNGGSGGAIVNVSSVASRLGSPGEYVDYAASKGAIDTLTTGLSLEVAAQGIRVNCVRPGFIYTEMHASGGEPGRVDRVKSNIPMQRGGQAEEVAQAIVWLLSDKASYVTGSFIDLAGGK | not soluble
MAIESGYILTTPCKNEEKSLPELAESIINQTITPKLWLIINDNSTDNSAKILRDIETKYNWIRVVTSEGQKRDLSFHYAEVVRYGLSLSLEISSAEKIPVEYIGLIDADMILEKNFFEKMIDRFEQDPNLGVASGSTAYFEAENLVTEKGRDNLPIGGLRVWRRECLIETGGFPLSYSADSVSNVLALLHGWETKKFEDIIGIQTRRTGSAEGLWKGYITKGESDYYRDYHPVYVLSKFIKYSFTHPFYIGIAYMEGYINGIVKIKKKICIPEVRRYYRKKHLEIGRYYAGKFKFKLLEHHHHHH | not soluble
MAIKDLFNNFFLMDDEEEVESPEERQRRVVQNEENETNNVQQNQPQQSERSYSNQSKLKTVPQKKTTRNYNSEERNVRMNQPPSKSNGKNVVTMNQTSQSYSGYESSKMCLFEPRVFSDTQDIADELKNRRATLVNLQRIDKISAKRIIDFLSGTVYAIGGDIQRVGTDIFLCTPDNVEVAGSITDHIEQMESQHYELEHHHHHH | not soluble
MAIQGSRTEGLGGYTFDDLAVVMGTYNEEEAIGTVLDDIATVTDGRAEVICVDGSSDRTPEIARDHGATVIEQEPQGYGVAVREAVLTPDRPVVVTTDCDDTYPMERLPDFLAEINDGADVVSGDRLYYGAEQMPAMNKLGNELFALLASVLMGKRVHDTTTGMRAYRREVLQKIVWTENTGLSAELLMRPLMRGYDVRERPIEYDERKGETKLDPFSGGAAIAKSIVRVALEERFRLEHHHHHH | soluble
MAIRKLLLLLKPIDPYPFLQTEGASLIKNPQVLINYLPQMRLISILNPDHVLQYLESRCKVHKNAIKFCQEILSKKPVEWKPISRNDLSHPIRDVDMVITVGGDGTLLHASHFIDDSVPVLGVNSDPTQAHEVEELSDQFDASRSTGHLCAATVENFEQVLDDILFGRVVPAKVSRISLKLNSETLLSHALNDILIAQPCPAAVSRFSFKIKNKDGASSPKTVNCRSSGLRICTAAGSTAAMQSAGGFVMPMLSRDLQFMVREPISPGSTASLMHSTFKPDQFMDVNWYSDHGTIYIDGCQVQHSVQLGDTIEISSDAPVLNVFLSHGISQIRSRY | soluble
